Data set [1] addresses T1, HSF5 N-terminal protein (HSF5-DBD) (Mus musculus, UniProt Q5ND04 1-209).
T1 sequence: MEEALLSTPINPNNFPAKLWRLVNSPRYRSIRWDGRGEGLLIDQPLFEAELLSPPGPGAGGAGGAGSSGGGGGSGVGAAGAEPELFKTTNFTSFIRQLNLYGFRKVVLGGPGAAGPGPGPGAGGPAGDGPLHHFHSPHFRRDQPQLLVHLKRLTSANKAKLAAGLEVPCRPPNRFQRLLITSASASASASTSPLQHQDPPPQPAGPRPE
In words: EMSA; 0.04 pmol probe, protein/DNA molar ratio 15.6-250; three shifted bands; 20 mM Tris-HCl pH 8.0, 100 mM NaCl, 2 mM MgCl2, 10 ul, 25 C, 10 min; 8% polyacrylamide gel in Tris-borate pH 8.3, 2 mM EDTA. The settings on record: protein: recombinant; tags: His (pET19b, E. coli; Ni-NTA purified); label: 32P (Klenow, [a-32P]dCTP); 5' overhang 3 nt (AGG) on both strands before Klenow labelling. Background: Mobility shift assays separate free from complexed probe on a gel.

The target in data set [2] is T1, HSF5 N-terminal protein (HSF5-DBD). Kind of data set: competition; 1 uM protein, 0.04 pmol labeled T probe, 1-125 fold excess competitor; 20 mM Tris-HCl pH 8.0, 100 mM NaCl, 2 mM MgCl2, 10 ul, 25 C, 10 min; 8% polyacrylamide gel in Tris-borate pH 8.3, 2 mM EDTA. Particulars: protein: recombinant; tags: His (pET19b, E. coli; Ni-NTA purified); 5' overhang 3 nt (AGG) on both strands.

Data set [3] has the same target. Kind of data set: EMSA; 0.04 pmol probe, protein/DNA molar ratio 15.6-250; shifts completely abolished; 20 mM Tris-HCl pH 8.0, 100 mM NaCl, 2 mM MgCl2, 10 ul, 25 C, 10 min; 8% polyacrylamide gel in Tris-borate pH 8.3, 2 mM EDTA. The settings on record: protein: recombinant; tags: His (pET19b, E. coli; Ni-NTA purified); label: 32P (Klenow, [a-32P]dCTP); 5' overhang 3 nt (AGG) on both strands before Klenow labelling.

Data set [4] shares this target. In words: competition; 1 uM protein, 0.04 pmol labeled T probe, 1-125 fold excess competitor; did not compete; 20 mM Tris-HCl pH 8.0, 100 mM NaCl, 2 mM MgCl2, 10 ul, 25 C, 10 min; 8% polyacrylamide gel in Tris-borate pH 8.3, 2 mM EDTA. Particulars: protein: recombinant; tags: His (pET19b, E. coli; Ni-NTA purified); 5' overhang 3 nt (AGG) on both strands.
Data set [5] concerns the molecule itself. In words: SEC-MALS; after heat treatment at 42 °C for 30 min; 100 μL of MBP-full length HSF5 (12.6 μM) or HSF5-DBD (26.6 μM) injected; PROTEIN KW-803 column; 25 mM HEPES/KOH pH 7.2, 150 mM KCl. On the technique in general: Size exclusion chromatography separates by hydrodynamic size, large species first.

B1: HSF5-EMSA target (T) probe (dsDNA)
DNA 1: AGGGCATAGATATGGAACTCTCTTAGAACTCTCTTAGAACTTACTACTG
DNA 2: AGGCAGTAGTAAGTTCTAAGAGAGTTCTAAGAGAGTTCCATATCTATGC
Consider B1, for which, in data set [1], the binding result was “binds”.

B2: unlabeled target (T) competitor (dsDNA)
DNA 1: B1 DNA 1
DNA 2: B1 DNA 2
As for B2, in data set [2], the binding result is reported as “binds”.

B3: HSF5-EMSA mutant (M) probe (dsDNA)
DNA 1: AGGGCATAGATAACCTTGAGTCTATCTTGAGTCTATCTTGAAACTACTG
DNA 2: AGGCAGTAGTTTCAAGATAGACTCAAGATAGACTCAAGGTTATCTATGC
With B3, in data set [3], the binding result is “no binding”.

B4: unlabeled mutant (M) competitor (dsDNA)
DNA 1: B3 DNA 1
DNA 2: B3 DNA 2
Regarding B4, the binding result in data set [4] is reported as “no binding”.

B5: His-MBP-fused full-length HSF5 protein (natural protein, mouse, UniProt Q5ND04 1-624, looked up)
chain: MEEALLSTPINPNNFPAKLWRLVNSPRYRSIRWDGRGEGLLIDQPLFEAELLSPPGPGAGGAGGAGSSGGGGGSGVGAAGAEPELFKTTNFTSFIRQLNLYGFRKVVLGGPGAAGPGPGPGAGGPAGDGPLHHFHSPHFRRDQPQLLVHLKRLTSANKAKLAAGLEVPCRPPNRFQRLLITSASASASASTSPLQHQDPPPQPAGPRPEQHGPVAVGQFHRSFRRDNLSPYSYVSTSSHNHSAFPLKGLDRTPIPPRTWQNSLGMHPGQVETSPTFSDKGVPFPVLQRFPTEVTYTLQPSATSVHVQQGPQTMVSSSQKYSNYTPSAQYSQAYYPTAVLQCCSPPTHMDALSSCVTPTASSYAHCNYFQNPPMQSSYPVEFLPSNWPCSATDENKKTEVNLEAVFQIVDELHSSPKLEMVKVEPVETQCPSSQANRGQHILPNANSSNPSSTSQASQLEPLTPVGSDITSFVVGTEQAITCSLPQSPEYIYTIHTAQPLENSTMQESATIQQTHVKLKEQLNHNPSPSSVVFVQEGLPFSTPQVDSSIKCQTNPSENILPSEQMGFLISEMGPANKSTKDTGLSTPARYRERRSNSQGKSPDLHLLVDVACKQEHFPKEEELKE
notes: Heat shock transcription factor 5 (HSF5), mouse, full length; A tobacco etch virus protease cleavage site lies between His6-MBP and HSF5; the fusion was not cleaved for SEC-MALS; also called MBP-full length HSF5; His-MBP-full length HSF5; source: pMAL-c6T construct, purified (HisTrap HP, gel filtration on Superdex 200 pg 16/600); not shown: His6, N-terminal, kept; MBP, N-terminal, kept
With B5, the binding result in data set [5] is listed as “binds”.

Source of the values: paper PMC11059408, “Atypical heat shock transcription factor HSF5 is critical for male meiotic prophase under non-stress conditions” (Nature Communications, 2023).
